Our source for the Kd and stoichiometry N values is paper PMC3734851.

For orientation: Kd means the equilibrium constant for the complex coming apart. Low values mean a tighter complex, high ones a looser complex. What is called stoichiometry N is a count of units in the complex or per binding partner.

Values joined by “and” are separate entries in the source; they are usually repeats but may differ in a detail not shown here. Identical values can stand only once. Like-named read-outs stand apart in the source and are kept apart here.

Test [1] addresses αβ-tubulin (unpolymerized, as used in gel filtration and analytical ultracentrifugation) (yeast) (UniProt P09733).
Test [2] shares this target. In words: AUC.
Test [3] concerns the target TOG1-TOG2 of Stu2p (yeast). In words: AUC.
Test [4] has as its target TOG1-TOG2 of Stu2p (yeast). Briefly: AUC. The source holds these as a separate data set.

“TOG2 domain of Stu2p (domain or fragment)” registered a Kd in test [1] of 200 to 300 nM. In test [2], this substance displayed a stoichiometry N of 1.
Regarding “αβ-tubulin (unpolymerized, as used in gel filtration and analytical ultracentrifugation) (from UniProt P09733 1-447; P02557 1-457) (complex)”, the stoichiometry N in test [3] was 1; in test [4], 1 and 2.
